Columns and labels:
Conditions in all cases: Homo sapiens; time 1.0 hrs
[1] = substrate: O=C(/C=C/c1ccc(O)c(O)c1)c1ccc(O)cc1O
Description: (§1) Binding affinity to DAPK1 (unknown origin) assessed as catalytic rate incubated for 1 hr in presence of ATP by malachite green assay (Rvb = 3.0 +/- 0.15 /min)

[2] = substrate: Cc1cc(O)ccc1/C=C/C(=O)c1ccc(O)cc1O
Description: as §1

[3] = substrate: COc1cc(/C=C/C(=O)c2ccc(O)cc2O)ccc1O
Description: as §1

[4] = substrate: CCCc1cc(/C=C/C(=O)c2ccc(O)cc2O)ccc1O
Description: as §1

[5] = substrate: C=CCc1cc(/C=C/C(=O)c2ccc(O)cc2O)ccc1O
Description: as §1

[6] = substrate: O=C(/C=C/c1ccc(O)cc1)c1ccc(O)cc1O
Description: as §1

[7] = substrate: O=C(/C=C/c1ccc(O)c(O)c1)c1ccc(O)cc1O; remark: listed apart in the source
[8] = substrate: Cc1cc(O)ccc1/C=C/C(=O)c1ccc(O)cc1O; remark: listed apart in the source
[9] = substrate: COc1cc(/C=C/C(=O)c2ccc(O)cc2O)ccc1O; remark: listed apart in the source
[10] = substrate: CCCc1cc(/C=C/C(=O)c2ccc(O)cc2O)ccc1O; remark: listed apart in the source
[11] = substrate: C=CCc1cc(/C=C/C(=O)c2ccc(O)cc2O)ccc1O; remark: listed apart in the source
[12] = substrate: O=C(/C=C/c1ccc(O)cc1)c1ccc(O)cc1O; remark: listed apart in the source
[13] = substrate: O=C(/C=C/c1ccc(O)c(O)c1)c1ccc(O)cc1O; remark: listed apart in the source
[14] = substrate: Cc1cc(O)ccc1/C=C/C(=O)c1ccc(O)cc1O; remark: listed apart in the source
[15] = substrate: COc1cc(/C=C/C(=O)c2ccc(O)cc2O)ccc1O; remark: listed apart in the source
[16] = substrate: CCCc1cc(/C=C/C(=O)c2ccc(O)cc2O)ccc1O; remark: listed apart in the source
[17] = substrate: C=CCc1cc(/C=C/C(=O)c2ccc(O)cc2O)ccc1O; remark: listed apart in the source
[18] = substrate: O=C(/C=C/c1ccc(O)cc1)c1ccc(O)cc1O; remark: listed apart in the source

B1: Death-associated protein kinase 1 (Homo sapiens), P53355 (protein)
chain: MTVFRQENVDDYYDTGEELGSGQFAVVKKCREKSTGLQYAAKFIKKRRTKSSRRGVSREDIEREVSILKEIQHPNVITLHEVYENKTDVILILELVAGGELFDFLAEKESLTEEEATEFLKQILNGVYYLHSLQIAHFDLKPENIMLLDRNVPKPRIKIIDFGLAHKIDFGNEFKNIFGTPEFVAPEIVNYEPLGLEADMWSIGVITYILLSGASPFLGDTKQETLANVSAVNYEFEDEYFSNTSALAKDFIRRLLVKDPKKRMTIQDSLQHPWIKPKDTQQALSRKASAVNMEKFKKFAARKKWKQSVRLISLCQRLSRSFLSRSNMSVARSDDTLDEEDSFVMKAIIHAINDDNVPGLQHLLGSLSNYDVNQPNKHGTPPLLIAAGCGNIQILQLLIKRGSRIDVQDKGGSNAVYWAARHGHVDTLKFLSENKCPLDVKDKSGEMALHVAARYGHADVAQLLCSFGSNPNIQDKEEETPLHCAAWHGYYSVAKALCEAGCNVNIKNREGETPLLTASARGYHDIVECLAEHGADLNACDKDGHIALHLAVRRCQMEVIKTLLSQGCFVDYQDRHGNTPLHVACKDGNMPIVVALCEANCNLDISNKYGRTPLHLAANNGILDVVRYLCLMGASVEALTTDGKTAEDLARSEQHEHVAGLLARLRKDTHRGLFIQQLRPTQNLQPRIKLKLFGHSGSGKTTLVESLKCGLLRSFFRRRRPRLSSTNSSRFPPSPLASKPTVSVSINNLYPGCENVSVRSRSMMFEPGLTKGMLEVFVAPTHHPHCSADDQSTKAIDIQNAYLNGVGDFSVWEFSGNPVYFCCYDYFAANDPTSIHVVVFSLEEPYEIQLNQVIFWLSFLKSLVPVEEPIAFGGKLKNPLQVVLVATHADIMNVPRPAGGEFGYDKDTSLLKEIRNRFGNDLHISNKLFVLDAGASGSKDMKVLRNHLQEIRSQIVSVCPPMTHLCEKIISTLPSWRKLNGPNQLMSLQQFVYDVQDQLNPLASEEDLRRIAQQLHSTGEINIMQSETVQDVLLLDPRWLCTNVLGKLLSVETPRALHHYRGRYTVEDIQRLVPDSDVEELLQILDAMDICARDLSSGTMVDVPALIKTDNLHRSWADEEDEVMVYGGVRIVPVEHLTPFPCGIFHKVQVNLCRWIHQQSTEGDADIRLWVNGCKLANRGAELLVLLVNHGQGIEVQVRGLETEKIKCCLLLDSVCSTIENVMATTLPGLLTVKHYLSPQQLREHHEPVMIYQPRDFFRAQTLKETSLTNTMGGYKESFSSIMCFGCHDVYSQASLGMDIHASDLNLLTRRKLSRLLDPPDPLGKDWCLLAMNLGLPDLVAKYNTSNGAPKDFLPSPLHALLREWTTYPESTVGTLMSKLRELGRRDAADFLLKASSVFKINLDGNGQEAYASSCNSGTSYNSISSVVSR
[1]
  kcat: 0.0367 s⁻¹
[2]
  kcat: 0.0383 s⁻¹
[3]
  kcat: 0.0383 s⁻¹
[4]
  kcat: 0.035 s⁻¹
[5]
  kcat: 0.025 s⁻¹
[6]
  kcat: 0.0483 s⁻¹
[7]
  Km: 60 µM
[8]
  Km: 48 µM
[9]
  Km: 59 µM
[10]
  Km: 28 µM
[11]
  Km: 21 µM
[12]
  Km: 43 µM
[13]
  kcat/Km: 417 M⁻¹ s⁻¹
[14]
  kcat/Km: 650 M⁻¹ s⁻¹
[15]
  kcat/Km: 417 M⁻¹ s⁻¹
[16]
  kcat/Km: 583 M⁻¹ s⁻¹
[17]
  kcat/Km: 1130 M⁻¹ s⁻¹
[18]
  kcat/Km: 600 M⁻¹ s⁻¹

Source: ChEMBL document CHEMBL6127040, “Discovery and optimization of isoliquiritigenin as a death-associated protein kinase 1 inhibitor” (Eur J Med Chem, 2024)
